Reference: patent US20230407373A1 (priority 2020, published 2023)
Where two headings read alike, the source gives them in different places.

B1: ILF3: host protein, UniProt Q12906 (protein, UniProt Q12906 1-894, looked up)
Interleukin enhancer-binding …: MRPMRIFVNDDRHVMAKHSSVYPTQEELEAVQNMVSHTERALKAVSDWIDEQEKGSSEQAESDNMDVPPEDDSKEGAGEQKTEHMTRTLRGVMRVGLVAKGLLLKGDLDLELVLLCKEKPTTALLDKVADNLAIQLAAVTEDKYEILQSVDDAAIVIKNTKEPPLSLTIHLTSPVVREEMEKVLAGETLSVNDPPDVLDRQKCLAALASLRHAKWFQARANGLKSCVIVIRVLRDLCTRVPTWGPLRGWPLELLCEKSIGTANRPMGAGEALRRVLECLASGIVMPDGSGIYDPCEKEATDAIGHLDRQQREDITQSAQHALRLAAFGQLHKVLGMDPLPSKMPKKPKNENPVDYTVQIPPSTTYAITPMKRPMEEDGEEKSPSKKKKKIQKKEEKAEPPQAMNALMRLNQLKPGLQYKLVSQTGPVHAPIFTMSVEVDGNSFEASGPSKKTAKLHVAVKVLQDMGLPTGAEGRDSSKGEDSAEETEAKPAVVAPAPVVEAVSTPSAAFPSDATAEQGPILTKHGKNPVMELNEKRRGLKYELISETGGSHDKRFVMEVEVDGQKFQGAGSNKKVAKAYAALAALEKLFPDTPLALDANKKKRAPVPVRGGPKFAAKPHNPGFGMGGPMHNEVPPPPNLRGRGRGGSIRGRGRGRGFGGANHGGYMNAGAGYGSYGYGGNSATAGYSQFYSNGGHSGNASGGGGGGGGGSSGYGSYYQGDNYNSPVPPKHAGKKQPHGGQQKPSYGSGYQSHQGQQQSYNQSPYSNYGPPQGKQKGYNHGQGSYSYSNSYNSPGGGGGSDYNYESKFNYSGSGGRSGGNSYGSGGASYNPGSHGGYGGGSGGGSSYQGKQGGYSQSNYNSPGSGQNYSGPPSSYQSSQGGYGRNADHSMNYQYR
B2: SSBP1 (protein, UniProt Q04837 17-148, looked up)
Single-stranded DNA-binding …: ESETTTSLVLERSLNRVHLLGRVGQDPVLRQVEGKNPVTIFSLATNEMWRSGDSEVYQLGDVSQKTTWHRISVFRPGLRDVAYQYVKKGSRIYLEGKIDYGEYMDKNNVRRQATTIIADNIIFLSDQTKEKE
B3: PURA (protein, UniProt Q00577 2-322, looked up)
Transcriptional activator …: ADRDSGSEQGGAALGSGGSLGHPGSGSGSGGGGGGGGGGGGSGGGGGGAPGGLQHETQELASKRVDIQNKRFYLDVKQNAKGRFLKIAEVGAGGNKSRLTLSMSVAVEFRDYLGDFIEHYAQLGPSQPPDLAQAQDEPRRALKSEFLVRENRKYYMDLKENQRGRFLRIRQTVNRGPGLGSTQGQTIALPAQGLIEFRDALAKLIDDYGVEEEPAELPEGTSLTVDNKRFFFDVGSNKYGVFMRVSEVKPTYRNSITVPYKVWAKFGHTFCKYSEEMKKIQEKQREKRAACEQLHQQQQQQQEETAAATLLLQGEEEGEED
B4: SF1: host protein, UniProt Q15637 (protein, UniProt Q15637 2-639, looked up)
Splicing factor 1: ATGANATPLDFPSKKRKRSRWNQDTMEQKTVIPGMPTVIPPGLTREQERAYIVQLQIEDLTRKLRTGDLGIPPNPEDRSPSPEPIYNSEGKRLNTREFRTRKKLEEERHNLITEMVALNPDFKPPADYKPPATRVSDKVMIPQDEYPEINFVGLLIGPRGNTLKNIEKECNAKIMIRGKGSVKEGKVGRKDGQMLPGEDEPLHALVTANTMENVKKAVEQIRNILKQGIETPEDQNDLRKMQLRELARLNGTLREDDNRILRPWQSSETRSITNTTVCTKCGGAGHIASDCKFQRPGDPQSAQDKARMDKEYLSLMAELGEAPVPASVGSTSGPATTPLASAPRPAAPANNPPPPSLMSTTQSRPPWMNSGPSESRPYHGMHGGGPGGPGGGPHSFPHPLPSLTGGHGGHPMQHNPNGPPPPWMQPPPPPMNQGPHPPGHHGPPPMDQYLGSTPVGSGVYRLHQGKGMMPPPPMGMMPPPPPPPSGQPPPPPSGPLPPWQQQQQQPPPPPPPSSSMASSTPLPWQQNTTTTTTSAGTGSIPPWQQQQAAAAASPGAPQMQGNPTMVPLPPGVQPPLPPGAPPPPPPPPPGSAGMMYAPPPPPPPPMDPSNFVTMMGMGVAGMPPFGMPPAPPPPPPQN
B5: SAFB: host protein, UniProt Q15424 (protein, UniProt Q15424 2-915, looked up)
Scaffold attachment factor B1: AETLSGLGDSGAAGAAALSSASSETGTRRLSDLRVIDLRAELRKRNVDSSGNKSVLMERLKKAIEDEGGNPDEIEITSEGNKKTSKRSSKGRKPEEEGVEDNGLEENSGDGQEDVETSLENLQDIDIMDISVLDEAEIDNGSVADCVEDDDADNLQESLSDSRELVEGEMKELPEQLQEHAIEDKETINNLDTSSSDFTILQEIEEPSLEPENEKILDILGETCKSEPVKEESSELEQPFAQDTSSVGPDRKLAEEEDLFDSAHPEEGDLDLASESTAHAQSSKADSLLAVVKREPAEQPGDGERTDCEPVGLEPAVEQSSAASELAEASSEELAEAPTEAPSPEARDSKEDGRKFDFDACNEVPPAPKESSTSEGADQKMSSPEDDSDTKRLSKEEKGRSSCGRNFWVSGLSSTTRATDLKNLFSKYGKVVGAKVVTNARSPGARCYGFVTMSTAEEATKCINHLHKTELHGKMISVEKAKNEPVGKKTSDKRDSDGKKEKSSNSDRSTNLKRDDKCDRKDDAKKGDDGSGEKSKDQDDQKPGPSERSRATKSGSRGTERTVVMDKSKGVPVISVKTSGSKERASKSQDRKSASREKRSVVSFDKVKEPRKSRDSESHSRVRERSEREQRMQAQWEREERERLEIARERLAFQRQRLERERMERERLERERMHVEHERRREQERIHREREELRRQQELRYEQERRPAVRRPYDLDRRDDAYWPEAKRAALDERYHSDFNRQDRFHDFDHRDRGRYPDHSVDRREGSRSMMGEREGQHYPERHGGPERHGRDSRDGWGGYGSDKRMSEGRGLPPPPRRDWGDHGRREDDRSWQGTADGGMMDRDHKRWQGGERSMSGHSGPGHMMNRGGMSGRGSFAPGGASRGHPIPHGGMQGGFGGQSRGSRPSDARFTRRY
B6: HNRNPH3 (protein, UniProt P31942 1-346, looked up)
Heterogeneous nuclear …: MDWVMKHNGPNDASDGTVRLRGLPFGCSKEEIVQFFQGLEIVPNGITLTMDYQGRSTGEAFVQFASKEIAENALGKHKERIGHRYIEIFRSSRSEIKGFYDPPRRLLGQRPGPYDRPIGGRGGYYGAGRGSMYDRMRRGGDGYDGGYGGFDDYGGYNNYGYGNDGFDDRMRDGRGMGGHGYGGAGDASSGFHGGHFVHMRGLPFRATENDIANFFSPLNPIRVHIDIGADGRATGEADVEFVTHEDAVAAMSKDKNNMQHRYIELFLNSTPGGGSGMGGSGMGGYGRDGMDNQGGYGSVGRMGMGNNYSGGYGTPDGLGGYGRGGGGSGGYYGQGGMSGGGWRGMY

Assays:
Assay type in all cases: binding
SARS-CoV-2 gRNA = settings: […]; LC-MS/MS; Probe I sample (first 199 lines of Table 2)
[1] = system: SARS-CoV-2 gRNA and sgRNAs; settings: for target (unweighted spectral count in RNP capture): Probe II capture, LC-MS/MS LFQ; for background (unweighted spectral count in control): no-probe control pull-down, used as background for Probe II
gRNA of HCoV-OC43 = settings: for target (spectral count) / background (spectral count): type g_36_m, 36 hpi, Probe I; for target (spectral count): HCoV-OC43-infected HCT-8 cells; for background (spectral count): uninfected-probe control; for target (spectral count, OC43 Probe I RNP capture) / background (spectral count, no-probe control): type n_48_v: 48 hours post-infection; for target (spectral count, OC43 Probe I RNP capture): infected cells, unweighted spectral count; for background (spectral count, no-probe control): no-probe control on infected cells
HCoV-OC43 gRNA and sgRNA = settings: for target (unweighted spectral count, OC43 Probe II capture) / target (unweighted spectral count): tested against no-probe control; for target (unweighted spectral count, OC43 Probe II capture): FDR<10%; for target (unweighted spectral count): OC43 Probe II, infected cells; for target (unweighted spectral count, OC43 Probe II) / background (unweighted spectral count, no-probe control): type n_48_v, 48 hpi; for target (unweighted spectral count, OC43 Probe II): OC43 Probe II capture on infected cells; for background (unweighted spectral count, no-probe control): no-probe control on infected cells; for target (spectral count) / background (spectral count): type s_36_m, Probe II; for target (spectral count): HCoV-OC43-infected HCT-8 cells; for background (spectral count): uninfected-probe control

Row | Molecule | target (unweighted spectral count of the protein in the RNP capture) (SARS-CoV-2 gRNA) | target (unweighted spectral count in RNP capture) ([1]; […]) | background (unweighted spectral count in control) [1] | target (spectral count) (gRNA of HCoV-OC43) | background (spectral count) (gRNA of HCoV-OC43) | target (spectral count, OC43 Probe I RNP capture) (gRNA of HCoV-OC43) | background (spectral count, no-probe control) (gRNA of HCoV-OC43) | target (unweighted spectral count, OC43 Probe II capture) (HCoV-OC43 gRNA and sgRNA; 36 hpi, type n_36_v) | target (unweighted spectral count) (HCoV-OC43 gRNA and sgRNA; 12 hpi (type n_12_v)) | target (unweighted spectral count) (HCoV-OC43 gRNA and sgRNA; 24 hpi (type n_24_v)) | target (unweighted spectral count, OC43 Probe II) (HCoV-OC43 gRNA and sgRNA) | background (unweighted spectral count, no-probe control) (HCoV-OC43 gRNA and sgRNA) | target (spectral count) (HCoV-OC43 gRNA and sgRNA; 36 hpi) | background (spectral count) (HCoV-OC43 gRNA and sgRNA; 36 hpi) | target (unweighted spectral count of the protein in the RNP capture experiment) ([1]; […], LC-MS/MS label-free quantification, probe pool not given) | back-ground (unweighted spectral count of the protein in the control experiment) ([1]; protein background of the control (e.g. no-probe) experiment, […]) | target (unweighted spectral count, OC43 Probe II capture) (HCoV-OC43 gRNA and sgRNA; 24 hpi, type n_24_v)
1 | B1 | 15 | 15 | 1 | 39 | 3 | 38 | 2 | 31 | 7 | 14 | 36 | 2 | 31 | 3 | – | – | –
2 | B2 | 14 | 7 | 1 | – | – | 16 | 3 | 12 | 44 | 25 | 14 | 3 | – | – | – | – | –
3 | B3 | 15 | 19 | 1 | – | – | 7 | 1 | 5 | – | – | 12 | 1 | – | – | – | – | –
4 | B4 | 17 | – | – | 12 | 2 | 12 | 1 | 8 | – | – | – | – | 8 | 1 | 6 | 1 | 4
5 | B5 | 20 | 11 | 1 | – | – | 11 | 1 | 7 | – | – | 9 | 1 | 7 | 1 | – | – | –
6 | B6 | 23 | 17 | 1 | – | – | 16 | 2 | 18 | 6 | 15 | 21 | 2 | – | – | – | – | –
